{"source": "patent EP1747015B1", "about": "(Janssen Biotech, Inc., dated 2012)", "key": {"[1]": {"molecular_target": "T1, murine Tissue Factor in murine brain extracts (murine, UniProt P20352 29-294)", "T1 sequence (looked up)": "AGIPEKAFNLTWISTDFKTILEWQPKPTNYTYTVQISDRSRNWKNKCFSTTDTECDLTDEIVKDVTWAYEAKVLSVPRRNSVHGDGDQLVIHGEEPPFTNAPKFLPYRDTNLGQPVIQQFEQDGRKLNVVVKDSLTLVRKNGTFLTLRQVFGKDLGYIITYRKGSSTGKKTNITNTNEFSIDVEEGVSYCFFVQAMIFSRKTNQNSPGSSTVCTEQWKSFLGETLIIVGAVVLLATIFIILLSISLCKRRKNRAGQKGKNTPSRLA", "assay": "cell-based or functional assay"}, "[2]": {"molecular_target": "T2, murine Tissue Factor on B6F10 melanoma cells (murine, UniProt P20352 29-294)", "T2 construct": "whole, on cells; also called cell-associated mTF", "T2 sequence (looked up)": "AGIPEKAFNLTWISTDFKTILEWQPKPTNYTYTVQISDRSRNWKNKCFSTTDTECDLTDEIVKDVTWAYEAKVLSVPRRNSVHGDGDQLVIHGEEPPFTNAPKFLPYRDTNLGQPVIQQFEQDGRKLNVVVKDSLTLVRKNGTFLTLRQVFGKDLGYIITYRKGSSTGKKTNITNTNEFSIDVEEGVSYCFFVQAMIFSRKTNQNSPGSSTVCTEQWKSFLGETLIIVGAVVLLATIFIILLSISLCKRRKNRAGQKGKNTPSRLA", "assay": "FACS on B6F10 melanoma cells that express mTF"}}}
{"binder": "PHD104 Fab (Fab, V domains shown) VH: QVQLVQSGAEVKKPGESLKISCKGSYSFTSNWIGWVRQMPGKGLEWMGWIYPSDSMTRYSPSFQGQVTISADKSISTAYLQWSSLKASDTAMYYCARYLFGLFDNWGQGTLVTVSS VL: DIELTQPPSVSVAPGQTARISCSGDNLGSYYVSWYQQKPGQAPVLVIYNDNNRPSGIPERFSGSNSGNTATLTISGTQAEDEADYYCATYDSSTDVFGGGTKLTVLG", "values": [{"measurement": "EC50 Conc. (ug/ml), inhibition of fibrin clot formation in human plasma", "setting": "[1]", "value": 23.8, "unit": "µg/mL"}]}
{"binder": "PHD127 Fab (Fab, V domains shown, Human HuCAL Fab; 8 (VH) and 9 (VL) for PHD127 are inferred from the order of the words and must be checked against the listing) VH: QVQLVQSGAEVKKPGESLKISCKGSYSFTNSWISWVRQMPGKGLEWMGIIDPDDSYTSYSPSFQGQVTISADKSISTAYLQWSSLKASDTAMYYCARGAGYGRMFGDVWGQGTLVTVSS VL: DIELTQPPSVSVAPGQTARISCSGDNLGSYYASWYQQKPGQAPVLVIYQDDNRPSGIPERFSGSNSGNTATLTISGTQAEDEADYYCGAYTYSTSWVFGGGTKLTVLG", "values": [{"measurement": "EC50 Conc. (ug/ml), inhibition of fibrin clot formation in human plasma", "setting": "[1]", "value": 0.82, "unit": "µg/mL"}, {"measurement": "EC50", "setting": "[2]", "value": 4.35, "unit": "nM"}]}
{"binder": "PHD126 Fab (Fab, V domains shown) VH: QVQLVQSGAEVKKPGESLKISCKGSYSFSNYWIGWVRQMPGKGLEWMGFIDPDDSDTNYSPSFQGQVTISADKSISTAYLQWSSLKASDTAMYYCARALYMQGGSFDSWGQGTLVTVSS VL: DIELTQPPSVSVAPGQTARISCSGDNLGSYYVSWYQQKPGQAPVLVIYRDTDRPSGIPERFSGSNSGNTATLTISGTQAEDEADYYCQSYDYGVSNQVFGGGTKLTVLG", "values": [{"measurement": "EC50 Conc. (ug/ml), inhibition of fibrin clot formation in human plasma", "setting": "[1]", "value": 0.23, "unit": "µg/mL"}]}
{"binder": "PHD103 Fab (Fab, V domains shown) VH: QVQLVQSGAEVKKPGESLKISCKGSGYSFSNSWIAWVRQMPGKGLEWMGGIIGPGHSYTKYSPSFQGQVTISADKSISTAYLQWSSLKASDTAMYYCARINMGYFDYWGQGTLVTVSS VL: DIELTQPPSVSVAPGQTARISCSGDSLGLKKFVSWYQQKPGQAPVLVIYDDSNRPSGIPERFSGSNSGNTATLTISGTQAEDEADYYCGTYDQTIGHDVVFGGGTKLTVLG", "values": [{"measurement": "EC50 Conc. (ug/ml), inhibition of fibrin clot formation in human plasma", "setting": "[1]", "value": 63.3, "unit": "µg/mL"}]}
